Non-standard residues stand in square brackets, D forms with d. Primed or numbered codes have the meaning given here. DO3A10CM″ = chelating group at the N-terminus (X in the sequence tables); azaGly′ = aza-glycine residue at the C-terminus, with NH2; Bpa = N[C@@H](Cc1ccc(C(=O)c2ccccc2)cc1)C(=O)O; d2Nal = N[C@H](Cc1ccc2ccccc2c1)C(=O)O; 3Pal = N[C@@H](Cc1cccnc1)C(=O)O; DO3A10CM = not defined here; Chmgly = not defined here; Dnalg1 = not defined here; Apgly = not defined here; Cegly = not defined here; Gufe4 = not defined here; Iegly = not defined here; Tdgly = not defined here; dAfe4 = not defined here; Thz′ = not defined here; Tha = not defined here; azaGly = NNC(=O)O; Sar = CNCC(=O)O
B1: BRU-3058 (peptide)
peptide: DO3A10CM-[d2Nal][Gufe4]WSH[dR]W[Bpa]P[azaGly′]-NH2
modifications: reading uncertain; also: printed as DO3A10CM-Dnal2-Gufe4-Trp-Ser-His-Darg-Trp-Bpa4-Pro-azaGly-NH2
B2: BRU-2964 (peptide)
peptide: DO3A10CM-[d2Nal]RWMH[dR]W[Bpa]P[azaGly]-NH2
modifications: reading uncertain; also: printed as DO3A10CM-Dnal2-Arg-Trp-Met-His-Darg-Trp-Bpa4-Pro-azaGly-NH2
B3: BRU-2963 (peptide)
peptide: XXRWSHXWXPX
modifications: N-terminal DO3A10CM; Ambz4 linker before 1; Dnal2 at 1; Darg at 6; Bpa4 at 8; azaGly-NH2 at 10
B4: BRU-2811 (peptide)
peptide: HWSHXWXPX
modifications: N-terminal DO3A10CM on His (AA1 absent); Darg at AA6; Bpa4 at AA8; azaGly-NH2 at AA10
B5: BRU-3098 (peptide)
peptide: KXRWSHXWXPX
modifications: Lys(DO3A10CM) before 1 (chelator on the Lys side chain); Dnal2 at 1; Darg at 6; Bpa4 at 8; azaGly-NH2 at 10
B6: BRU-2962 (peptide)
peptide: GXRWSHXWXPX
modifications: N-terminal DO3A10CM; Gly linker before 1; Dnal2 at 1; Darg at 6; Bpa4 at 8; azaGly-NH2 at 10
B7: BRU-2957 (peptide)
peptide: XRWXHXWXPX
modifications: DO3A10CM on N-terminus; AA1 Dnal2; AA4 Pal4; AA6 Darg; AA8 Bpa4; AA10 azaGly-NH2
B8: BRU-3109 (peptide)
peptide: XRXSHXWXPX
modifications: DO3A10CM on N-terminus; AA1 Dnal2; AA3 Pal3; AA6 Darg; AA8 Bpa4; AA10 azaGly-NH2
B9: BRU-3112 (peptide)
peptide: XRXSHXWXPX
modifications: DO3A10CM on N-terminus; AA1 Dnal2; AA3 Dtrp; AA6 Darg; AA8 Bpa4; AA10 azaGly-NH2
B10: BRU-2719 (peptide)
peptide: XXWSHXWXPX
modifications: DO3A10CM on N-terminus; AA1 Sar; AA2 4ClPhe; AA6 Darg; AA8 Bpa4; AA10 azaGly-NH2
B11: BRU-3052 (peptide)
peptide: GXRWSHXWXPX
modifications: DO3A10CM-Gly (linker) on N-terminus; AA1 Tic; AA6 Darg; AA8 Bpa4; AA10 azaGly-NH2
B12: BRU-3067 (peptide)
peptide: GXRWSHXWXPX
modifications: DO3A10CM-Gly (linker) on N-terminus; AA1 Dtic; AA6 Darg; AA8 Bpa4; AA10 azaGly-NH2

biological target: LHRH receptor (LHRH binding sites) on EFO-27 human ovarian cancer cells (human); assay: competition with [125I-Tyr8]BRU-2477, EFO-27 cells

Point of comparison: XRRSHXWXPX (N-terminal DO3A10CM; Dnal2 at 1; Darg at 6; Bpa4 at 8; azaGly-NH2 at 10) [BRU-3111], EC50 250 nM. Against it:
- XHWSHXWXPX (AA1 Sar; AA6 Darg; AA8 Bpa4; AA10 azaGly-NH2) [BRU-2441] — 1.8-fold lower, 140 nM
- B1 — within 1.5-fold, 260 nM
- B2 — within 1.5-fold, 220 nM
- XHWSHXWXPX (Ac-Amfe4 at 1; Darg at 6; Bpa4 at 8; azaGly-NH2 at 10) [BRU-2839] — the same, 250 nM
- XHWSHXWXPX (Ac-Dnal2 at 1; Darg at 6; Bpa4 at 8; azaGly-NH2 at 10) [BRU-2803] — within 1.5-fold, 260 nM
- XRWNHXWXPX (N-terminal DO3A10CM; Dnal2 at 1; Darg at 6; Bpa4 at 8; azaGly-NH2 at 10) [BRU-2956] — within 1.5-fold, 270 nM
- B3 — within 1.5-fold, 280 nM
- XRWSHRWXPX (N-terminal DO3A10CM; Dnal2 at 1; Bpa4 at 8; azaGly-NH2 at 10 (L-Arg at 6)) [BRU-3031] — within 1.5-fold, 310 nM
- RRWSHXWXPX (N-terminal DO3A10CM; Darg at 6; Bpa4 at 8; azaGly-NH2 at 10) [BRU-3050] — within 1.5-fold, 310 nM
- XRWSHXWXPX (N-terminal DO3A10CM; Damfe4 at 1; Darg at 6; Bpa4 at 8; azaGly-NH2 at 10) [BRU-2997] — within 1.5-fold, 330 nM
- B4 — within 1.5-fold, 360 nM
- XRWSHXWXPX (N-terminal DO3A10CM; Dnal2 at 1; Darg at 6; Nal2 at 8; azaGly-NH2 at 10) [BRU-3027] — within 1.5-fold, 370 nM
- B5 — 1.6-fold higher, 410 nM
- XHWSHXWXPX (pGlu at 1; Darg at 6; Bpa4 at 8; azaGly-NH2 at 10) [BRU-2822] — 1.7-fold higher, 420 nM
- XRFSHXWXPX (N-terminal DO3A10CM; Dnal2 at 1; Darg at 6; Bpa4 at 8; azaGly-NH2 at 10) [BRU-3106] — 1.7-fold higher, 430 nM
- B6 — 1.9-fold higher, 470 nM
- HRWSHXWXPX (N-terminal DO3A10CM; Darg at 6; Bpa4 at 8; azaGly-NH2 at 10) [BRU-3025] — 1.9-fold higher, 470 nM

biological target: LHRH binding sites on EFO-27 human ovarian cancer cells (human); assay: competition with [125I-Tyr8]BRU-2477 on EFO-27 cells

Point of comparison: B8, EC50 730 nM. Against it:
- XHWSHXWXPX (AA1 Sar; AA6 Darg; AA8 Bpa4; AA10 azaGly-NH2) [BRU-2441] — 5.2-fold lower, 140 nM
- B1 — 2.8-fold lower, 260 nM
- DO3A10CM-G[Apgly]HWSHRW[Bpa]P[azaGly]-NH2 (not fully specified (residue 7); reading uncertain; also: AA6 Darg prints R) [BRU-2874] — 2.7-fold higher, 1970 nM
- DO3A10CM-G[Cegly]HWSHRW[Bpa]P[azaGly]-NH2 (not fully specified (residue 7); reading uncertain; also: AA6 Darg prints R) [BRU-2875] — 12-fold higher, 8700 nM
- XHWSHXWXPX (DO3A10CM on N-terminus; AA1 Sar; AA6 Darg; AA8 Cha; AA10 azaGly-NH2) [BRU-2718] — within 1.5-fold, 630 nM
- DO3A10CM-G[Chmgly]HWSHRW[Bpa]P[azaGly]-NH2 (not fully specified (residue 7); reading uncertain; also: AA6 Darg prints R) [BRU-2877] — within 1.5-fold, 900 nM
- DO3A10CM-G[Tdgly]HWSHRW[Bpa]P[azaGly]-NH2 (not fully specified (residue 7); reading uncertain; also: AA6 Darg prints R) [BRU-2878] — 6.1-fold higher, 4480 nM
- DO3A10CM-G[Iegly]HWSHRW[Bpa]P[azaGly]-NH2 (not fully specified (residue 7); reading uncertain; also: AA6 Darg prints R) [BRU-2879] — within 1.5-fold, 1030 nM
- XHWSHXWXPX (DO3A10CM on N-terminus; AA1 Mednal2; AA6 Darg; AA8 Bpa4; AA10 azaGly-NH2) [BRU-3003] — within 1.5-fold, 760 nM
- XRWSHXWXPX (DO3A10CM on N-terminus; AA1 Mednal2; AA6 Darg; AA8 Bpa4; AA10 azaGly-NH2) [BRU-2965] — within 1.5-fold, 580 nM
- XHWSHXWXPX (DO3A10CM on N-terminus; AA1 Sar; AA6 Darg; AA8 Nal1; AA10 azaGly-NH2) [BRU-2720] — within 1.5-fold, 540 nM
- B7 — within 1.5-fold, 840 nM
- {DO3A10CM″}-[Sar][His(pime)]WS[Tha][dR]W[Bpa]P[azaGly]-NH2 (reading uncertain) [BRU-2739] — 7.2-fold higher, 5280 nM
- {DO3A10CM″}-[Sar][Tha]WS[Tha][dR]W[Bpa]P[azaGly]-NH2 (reading uncertain) [BRU-2762] — 21-fold higher, 15000 nM
- XRWSXXWXPX (DO3A10CM on N-terminus; AA1 Dnal2; AA5 Tha; AA6 Darg; AA8 Bpa4; AA10 azaGly-NH2) [BRU-2958] — within 1.5-fold, 710 nM
- DO3A10CM-[d2Nal]RWSR[dW]W[Bpa]P[azaGly]-NH2 (reading uncertain) [BRU-3001] — 4.5-fold higher, 3280 nM
- XRWSXXWXPX (DO3A10CM on N-terminus; AA1 Dnal2; AA5 Cit; AA6 Darg; AA8 Bpa4; AA10 azaGly-NH2) [BRU-3030] — within 1.5-fold, 930 nM
- B9 — within 1.5-fold, 850 nM
- XHWSHXWXPX (DO3A10CM on N-terminus; AA1 Sar; AA6 Darg; AA8 Pal3; AA10 azaGly-NH2) [BRU-2726] — 24-fold higher, 17400 nM
- XHWSHXWXPX (DO3A10CM on N-terminus; AA1 Sar; AA6 Darg; AA8 Tha; AA10 azaGly-NH2) [BRU-2742] — 14-fold higher, 10000 nM
- {DO3A10CM″}-[Sar]HWSH[dR]WYP[azaGly]-NH2 [BRU-2758] — 14-fold higher, 10000 nM
- XHWSHXWXPX (DO3A10CM on N-terminus; AA1 Sar; AA6 Darg; AA8 Amfe4; AA10 azaGly-NH2) [BRU-2760] — 4.9-fold higher, 3550 nM
- XHWSHXWXPX (DO3A10CM on N-terminus; AA1 Sar; AA6 Darg; AA8 Aic2; AA10 azaGly-NH2) [BRU-2764] — 5.9-fold higher, 4310 nM
- XHWSHXWXPX (DO3A10CM on N-terminus; AA1 Sar; AA6 Darg; AA8 Ing2; AA10 azaGly-NH2) [BRU-2765] — 12-fold higher, 8710 nM
- XHWSHXWXPX (DO3A10CM on N-terminus; AA1 Sar; AA6 Darg; AA8 Dtyr(OBz); AA10 azaGly-NH2) [BRU-2819] — within 1.5-fold, 770 nM
- XHWSHXWXPX (DO3A10CM on N-terminus; AA1 Sar; AA6 Darg; AA8 Tyr(OBz); AA10 azaGly-NH2) [BRU-2820] — 2.2-fold higher, 1570 nM
- XHWSHXWXPX (DO3A10CM on N-terminus; AA1 Sar; AA6 Darg; AA8 Bpa(NOH); AA10 azaGly-NH2) [BRU-2907] — 2.6-fold higher, 1900 nM
- XHWSHXWXPX (DO3A10CM on N-terminus; AA1 Ambz4; AA6 Darg; AA8 Bpa4; AA10 azaGly-NH2) [BRU-2737] — 1.9-fold higher, 1400 nM
- XHWSHXWXPX (DO3A10CM on N-terminus; AA1 EtGly; AA6 Darg; AA8 Bpa4; AA10 azaGly-NH2) [BRU-2788] — 3.5-fold lower, 210 nM
- XHWSHXWXPX (DO3A10CM on N-terminus; AA1 Nal2; AA6 Darg; AA8 Bpa4; AA10 azaGly-NH2) [BRU-2809] — 4.8-fold higher, 3540 nM
- XHWSHXWXPX (DO3A10CM on N-terminus; AA1 Dtyr; AA6 Darg; AA8 Bpa4; AA10 azaGly-NH2) [BRU-2870] — 14-fold higher, 10000 nM
- XHWSHXWXPX (AA1 Ac-Amfe4 with (DO3A10CM) as printed; AA6 Darg; AA8 Bpa4; AA10 azaGly-NH2) [BRU-2881] — 1.9-fold higher, 1380 nM
- B10 — within 1.5-fold, 630 nM
- {DO3A10CM″}-[Sar][His(pime)]WSH[dR]W[Bpa]P[azaGly]-NH2 [BRU-2759] — 14-fold higher, 10000 nM
- DO3A10CM-[Sar][Tha]WSH[dR]W[Bpa]P[azaGly]-NH2 (reading uncertain) [BRU-2768] — 18-fold higher, 12800 nM
- DO3A10CM-[Sar][dAfe4]WSH[dR]W[Bpa]P[azaGly]-NH2 (reading uncertain) [BRU-2815] — 9.9-fold higher, 7250 nM
- XRWSHXWXPX (DO3A10CM on N-terminus; AA1 Sar; AA6 Darg; AA8 Bpa4; AA10 azaGly-NH2) [BRU-2817] — 2.3-fold higher, 1700 nM
- DO3A10CM-[Sar][3Pal]WSH[dR]W[Bpa]P[azaGly]-NH2 (reading uncertain) [BRU-2818] — 2.2-fold higher, 1620 nM
- DO3A10CM-G[Thz′]HWSH[dR]W[Bpa]P[azaGly]-NH2 (reading uncertain) [BRU-2728] — 4.3-fold higher, 3150 nM
- DO3A10CM-G[Dnalg1]HWSH[dR]W[Bpa]P[azaGly]-NH2 (reading uncertain) [BRU-2770] — 3.7-fold higher, 2700 nM
- XRWSHXWXPX (DO3A10CM on N-terminus; AA1 Nal2; AA6 Darg; AA8 Bpa4; AA10 azaGly-NH2) [BRU-3051] — within 1.5-fold, 620 nM
- B11 — within 1.5-fold, 550 nM
- B12 — within 1.5-fold, 510 nM
- XRWSHXWXPX (DO3A10CM on N-terminus; AA1 Cafe4; AA6 Darg; AA8 Bpa4; AA10 azaGly-NH2) [BRU-3092] — 2.7-fold higher, 2000 nM

XHWSHXWXPX (AA1 Sar; AA6 Darg; AA8 Bpa4; AA10 azaGly-NH2) [BRU-2441] showed a times more potent than BRU-2439 of 2 times.

For XRWSHXWXPX (DO3A10CM on N-terminus; AA1 Mednal2; AA6 Darg; AA8 Bpa4; AA10 azaGly-NH2) [BRU-2965], the fold reduction in binding potency against BRU-2813 was 2 fold.
